Test: soluble on expression in E. coli; label from the status in PepcDB or PDB records

Sequence | soluble on expression in E. coli
MGSDKIHHHHHHMRRPRRPQDFLEYEKVLKFKESEKQIEETETKGDVRVALVVPSGYEVAASGLAFHYVQKLLNSHPRIRCERFFYDETFKKFYSLETQTPIDEFPIWLFSVSFENDFSNLLDILKKKDVPLSWKEREDYHPLIIIGGAVTYLNEEFLIPVADAVYYGELEKYLDLFTEALTGETKQEILSSLSRIPSVEVPSLKEHSEIATGVDLNDFLPHSSVVPSRGVFPGKLLVEVGRGCIRRCAFCIFGKNLKPARFVKPERFEELVKNTPYSEYGLISATITDYPWLEDLLDTVEKYQLKISVSSLRLDRLSERLLRTLKDSGQRSFTIAPEAGSQRIRDILKKDITDEQIENALKLARKLDFDRVKMYFIYGLEEETEEDLEAFKKLGDLAVRLGYREVHMSFNPLIPKPGTEFERRKMEPVDVLRKKEKILKNLLKGFRVDFESIRESVVQYTIAHAGKEEVESWLKFFEKSDKKLLGKLIYEEGRKRLC | not soluble
MQPKVVYGNAAVEGVNRWGWFMGHFITPEDDPRSTEMLEVKWAVHKAGDSRTEWAVNNQAATLSILIDGEFRLQFEDREILLSREGDYVLWCAGVPHWWVAESDCTILTVRWPSKPGDSVALPEESKS | soluble
MDQSSHHHHHHMDQKQIEEIVRSVMASMGQAAPAPSEAKCATTNCAAPVTSESCALDLGSAEAKAWIGVENPHRADVLTELRRSTVARVCTGRAGPRPRTQALLRFLADHSRSKDTVLKEVPEEWVKAQGLLEVRSEISDKNLYLTRPDMGRRLCAEAVEALKAQCVANPDVQVVISDGLSTDAITVNYEEILPPLMAGLKQAGLKVGTPFFVRYGRVKIEDQIGEILGAKVVILLVGERPGLGQSESLSCYAVYSPRMATTVEADRTCISNIHQGGTPPVEAAAVIVDLAKRMLEQKASGINMTR | soluble
MVEELFYKKILKNLFSDPVQITLWNGETIQYGEGEPQFHVTFHKPLSKKEIAKDPSIAFGEAYMNGDLEIEGNLEKAIQSIYKRQDSFLGDSKLQYFKSKWNFSKQKNKDDIAHHYDIGNDFYKLWLDETMTYSCAYFQNEQDSLTTAQHNKVNHILKKLNLQKGDTLLDIGCGWGELITAAAKQYGVKAMGVTLSEEQYAKASERIKQEGLTDLVEVSLLDYRDIKNQKFDKIVSVGMIEHVGKDNITQYFETVNTLLNDGGISLLHCITSPANGGATNGWIEKYIFPGGYVPAVNELITNMTNEQFFIVDVESLRRHYGKTLQHWARNFENVMEEVRKTKDERFIRMWRLYLNACAASFFTGNIDLHQFVFTKGINDTIPMTRSYMYE | not soluble
MGSDKIHHHHHHMTPIPFYVPVGNECELFETAWQRRLPLLLKGPTGCGKTRFVTHMAARLQRPLFTVSCHDDLTAADLTGRFLIKGGETVWVDGPLTRAIREGGICYLDEIVEARKDVTVVLHPLTDDRRMLPLERTNEILHAPDTFMLVVSYNPGYQNILKSLKPSTRQRFVALSFNFPPPEIELEIIASESGLARDRCTALVNLATRLRLLKDVDLEESVSTRLLVYCATLMAAGLDPYQAAQAALVEPLSDETEVQQGLLELIHATFG | not soluble
MAHHHHHHMEKQCPVCYFNLPDPESAIAPYDTELNYFMWGPGFEWQPEPEVKNILVEEENFEESEQSEESVAGLEELDEKVDRSEAKTMFNEKSSNGKVSVEDASQNARKLGLAPSSLDEKKVRDLYGDSLTYEQYLEYLAMCVHDRDNMEELIKMFSHFDNNASGFLTKNQMRNILTTWGDALTEQEANDALNAFSSEDRIDYKLFCEDILQ | not soluble
MNGLLKYSFPICFSLLALFACEDDGIDVDNIEVPAGFALSAGTATNFLTSSYAYDRSADWITGAYDKRFTRGDKLYDDIRTSSNGIGGGLGPVYAGYSCGSCHRNAGRTQPTLWSEGGSGSSGFSSMLVYISRKNGAFFQDYGRVLHDQAIYGVKPEGKLKVEYTYETFQFPDGETYELCKPNYSIYEWYADSIKPEDLFCTVRIPLRHVGMGQMMALDPTEIEALAAKSNYPEYGISGRCNYISERGMRSLGLSGNKAQHADLTVELGFSSDMGVTNSRYPEEICEGQAQVNQGSMMGLSYAQLDVSTEEMENVDLYMQSLSVPARRNVNNEQVIKGEQNFYKAKCHLCHVTTLHTKPRGSILLNGTRLPWLGSQTIHPYSDFLLHDMGSEIMGVGLNDNYVSGLARGNEWRTTPLWGIGLQETVNGHTYFLHDGRARNYIEAIMWHGGEGEASKNLFKKMSKEDRNALVAFLKSL | not soluble
MVADVKSPAGLAAFNTTLAEQAFATGFVLSGEDAQLFAALGSAPNASTYPNVARWYANVASYTDAERKTWASAGGSAPAAAAADGDDFDLFGSDDEEEDAEKAKIVEERLAAYAEKKAKKAGPIAKSSVILDVKPWDDETDLGEMEKLVRSIEMDGLVWGGAKLIPIGYGIKKLQIITVIEDLKVSVDDLIEKITGDFEDHVQSVDIVAFNKI | not soluble
DQAGKSPNAVRYHGGDEIILQGFHWNVVREAPNDWYNILRQQAATIAADGFSAIWMPVPWRDFSSWSDGSKSGGGEGYFWHDFNKNGRYGSDAQLRQAASALGGAGVKVLYDVVPNHMNRGYPDKEINLPAGQGFWRNDCADPGNYPNDCDDGDRFIGGDADLNTGHPQVYGMFRDEFTNLRSQYGAGGFRFDFVRGYAPERVNSWMTDSADNSFCVGELWKGPSEYPNWDWRNTASWQQIIKDWSDRAKCPVFDFALKERMQNGSIADWKHGLNGNPDPRWREVAVTFVDNHDTGYSPGQNGGQHHWALQDGLIRQAYAYILTSPGTPVVYWDHMYDWGYGDFIRQLIQVRRAAGVRADSAISFHSGYSGLVATVSGSQQTLVVALNSDLGNPGQVASGSFSEAVNASNGQVRVWRSGTGSGGGEPGALVSVSFRCDNGATQMGDSVYAVGNVSQLGNWSPAAALRLTDTSGYPTWKGSIALPAGQNEEWKCLIRNEANATQVRQWQGGANNSLTPSEGATTVGRL | soluble
MGSDKIHHHHHHMLVVPAIDLFRGKVARMIKGRKENTIFYEKDPVELVEKLIEEGFTLIHVVDLSNAIENSGENLPVLEKLSEFAEHIQIGGGIRSLDYAEKLRKLGYRRQIVSSKVLEDPSFLKSLREIDVEPVFSLDTRGGRVAFKGWLAEEEIDPVSLLKRLKEYGLEEIVHTEIEKDGTLQEHDFSLTKKIAIEAEVKVLAAGGISSENSLKTAQKVHTETNGLLKGVIVGRAFLEGILTVEVMKRYAR | not soluble
FTNPGQIVGRIDRDSGMTSTAPAMPDGDWQAYGRTEFGDRYSPLKQITPANVGQLEEAWRIRTGDLPTADDPLELTNENTPLKVNGMLYACTAHSKVLALDPDTGAEIWRFDPQIQSPVGFKGFAHMTCRGVSYYDEEQYARSDVGAPPAALSEAGKAVAASCPRRLFLPTADARLIAINADNGKVCEDFGVKGAVDLTAGIGPFTPGGYYSTSPAAVTRNLVIIGGHVTDNESTNEPSGVIRAFDVHDGKLVWNWDSGNPDETEPLAPGKFYTRNSPNMWSLASVDEKLGQVYLPLGNQMPDQWGGNRTPGAEKFSAGLVALDLNTGKLRWNYQFTHHDLWDMDVGSQPTLLDLKTADGVKPALIAPTKQGSLYVLDRRDGTPIVPIREVPAPQGAVEGDHTAPTQARSDLNLLRPPLTERDMWGSSPFDQMLCRIQFRSLRYEGQYTPPSEQGSLIYPGNVGVFNWGGVSVDPVRQILFTSPNYMAFVSQMVPRDKVPSGSKREGETSGVQPNTGAPYAVIMHPFMSPIGLPCQAPSWGDVAGIDLTTAKVVWQHKNGTSRDNTPVPIGLTVGVPSMGGSITTAGGVAFLSGTLDQYLRAYDVKDGKQLWQARLPAGGQATPMSYTGKDGRQYVLIVAGGHGSFGTRMGDYIIAYALPR | not soluble
MSLNEELIKTGDFAKMCAVTKKALYVYEAKGLLKPAVVKDNGYRYYRLEQVDQVATIRLLEKLGSSLQEVGDFFALKDLNERQKYLGKQQEAVEREMAELGKIKSSLEFFDQRISDLKQTGLKKWRLRLARKNTWKSVLLGMVFREGHHHHHH | not soluble
MSLKGNLDVIPQPQEIVLARDTTPFIIDRSTTIVYPATNEKMHRTADFLATFIKEMTGTEVHVSDKEKSSNAIILAVDSTMGHPEGYKLQITPEKVLLTGGSEAGVFYGIQTIHKALPILKDGKVAAALPAGTVTDFPRFRYRGFMIDVGRHFFPVSYLKQMIDLMALHNINYFHWHLTEDQGWRIEIKKYPKLTEIGSKRDSTIIDWETKKFDGKPHSGFYTQDEAREIVRYAADRFITVVPEIDLPGHTTAALASYPELGCTGGPYKVLCSFGVFPDVLCAGNDQTLQFTKDVLDEIMDIFPSEYIHIGGDECPKSRWEKCPKCQAKIKELGIKALPKHSKENQLQTYFMSELEKEINAHGRRMLGWDEVLEGGLTPNSTIMSWRGIQGGIEAARQHHDVIMTPIQRLYFSNPRINKMTGFEWMNRVYNFEPVPAELTDAEKKFVIGTQGCIWTEWTADSTKMEWQILPRMAALSEIQWTLPEHKNFERFMERLPEMLKIYSSLDYGYREDVFAADTLKTHKEGHHHHHH | soluble
MSHAHKKHKENAPKSLNFYVITISTSRYEKLLKKEPIVDESGDIIKQLLIENGHKIIGYSLVPDDKIKILKAFTDALSIDEVDVIISTGGTGYSPTDITVETIRKLFDREIEGFSDVFRLVSFNDPEVKAAAYLTKASAGIIGKKIVYLLPGSPDAVKLALKELILPEVGHLVYLVRS | soluble
MQFDNIDSALMALKNGETIIVVDDENRENEGDLVAVTEWMNDNTINFMAKEARGLICAPVSKDIAQRLDLVQMVDDNSDIFGTQFTVSIDHVDTTTGISAYERTLTAKKLIDPSSEAKDFNRPGHLFPLVAQDKGVLARNGHTEAAVDLAKLTGAKPAGVICEIMNDDGTMAKGQDLQKFKEKHQLKMITIDDLIEYRKKLEPEIEFKAKVKMPTDFGTFDMYGFKATYTDEEIVVLTKGAIRQHENVRLHSACLTGDIFHSQRCDCGAQLESSMKYINEHGGMIIYLPQEGRGIGLLNKLRAYELIEQGYDTVTANLALGFDEDLRDYHIAAQILKYFNIEHINLLSNNPSKFEGLKQYGIDIAERIEVIVPETVHNHDYMETKKIKMGHLIMAGDPLEHHHHHH | not soluble
MSTDNLLQPKLIEATLGDYPVIQNMARFYVYDMSRYCGFISEEWTCPPDGLYESYDFKIYFTDPERKAFLIQIDNELAGFALLNKFGIQAVDWSMGEFFILAKFQGKGIGQSVAHQLWRTHPGEWEISVIPENIPALSFWRQAVMTYTL | not soluble
MGSSHHHHHHSSGLVPRGSHMAKAPEQTVTEPVGSYARAERPQDFEGFVWRLDNDGKEALPRNFRTSADALRAPEKKFHLDAAYVPSREGMDALHISGSSAFTPAQLKNVAAKLREKTAGPIYDVDLRQESHGYLDGIPVSWYGERDWANLGKSQHEALADERHRLHAALHKTVYIAPLGKHKLPEGGEVRRVQKVQTEQEVAEAAGMRYFRIAATDHVWPTPENIDRFLAFYRTLPQDAWLHFHCEAGVGRTTAFMVMTDMLKNPSVSLKDILYRQHEIGGFYYGEFPIKTKDKDSWKTKYYREKIVMIEQFYRYVQENRADGYQTPWSVWLKSHPAKA | soluble
MGSDKIHHHHHHMLPKWDNSYSVHNAKIDEQHKKLFKLAAKVEVVSDRSVSKNEVKELLAEFFNYMKDHFNDEEKYMQLIGYPNLEEHRKIHKEIIQTMINLIKDIKSTNDLKEKLYIVAKKWLLEHILYEDMKVEKWRSSSLSTDDGGDVSFEAAEDEDNEHPQFYLYTCNCPGKIHDVPYSIHQKIELQGRKFTCKTCKQAIKFYKKYS | not soluble
